The values below come from patent US5082772A, “Process for preparing deacetylcephalosporin C” (priority 1988, dated 1992).

Substrate in data set [1]: CC1(C)S[C@@H]2[C@H](NC(=O)CCC[C@@H](N)C(=O)O)C(=O)N2[C@H]1C(=O)O
Briefly: Kinetics of recombinant enzyme (Lineweaver-Burk). Format: biochemical, Streptomyces clavuligerus. As to conditions: other: recombinant enzyme, pH 7.0, 50 mM HEPES buffer, 36° C.

Substrate in data set [2]: O=C(O)CCC(=O)C(=O)O
The data set can be described thus: purified protein, by the assay type. Conditions: 36° C.

Substrate in data set [3]: CC1(C)S[C@@H]2[C@H](NC(=O)CCC[C@@H](N)C(=O)O)C(=O)N2[C@H]1C(=O)O
The data set can be described thus: Kinetics of native synthase, partially purified (Mono Q eluate). Format: biochemical, Streptomyces clavuligerus. As to conditions: other: native partially purified enzyme, Tris-HCl buffer, 36° C., pH 7.0.

B1: recombinantly produced DAOC synthase (Streptomyces clavuligerus) (protein)
chain: MDTTVPTFSLAELQQGLHQDEFRRCLRDKGLFYLTDCGLTDTELKSAKDLVIDFFEHGSEAEKRAVTSPVPTMRRGFTGLESESTAQITNTGSYSDYSMCYSMGTADNLFPSGDFERIWTQYFDRQYTASRAVAREVLRATGTEPDGGVEAFLDCEPLLRFRYFPQVPEHRSAEEQPLRMAPHYDLSMVTLIQQTPCANGFVSLQAEVGGAFTDLPYRPDAVLVFCGAIATLVTGGQVKAPRHHVAAPRRDQIAGSSRTSSVFFLRPNADFTFSVPLARECGFDVSLDGETATFQDWIGGNYVNIRRTSKA
notes: made in house; host or cells: Escherichia coli K12 JM109 (plasmid pOW382)
One may read the Km as the concentration of substrate that gives half-maximal velocity. B1: the Michaelis-Menten constant (Km) in data set [1] came out at 29 µM; in data set [2] (other: recombinant enzyme, pH 7.0, 50 mM HEPES buffer) it was 18 µM.

B2: native synthase (Streptomyces clavuligerus) (protein)
chain: B1 chain
notes: native synthase, evaluated with the partially purified enzyme; endogenous in cells; host or cells: Streptomyces clavuligerus cells, crude extract, three-step purification (Mono Q eluate)
Take B2: the Michaelis-Menten constant (Km) in data set [2] (other: native partially purified enzyme, Tris-HCl buffer, pH 7.0) amounted to 22 µM; in data set [3], 35 µM.
